Patent US20180238915A1 (published 2018)
Like-named read-outs stand apart in the source and are kept apart here. Each block holds one binder with its values, some of them ahead of it.

Tests used:
[1] = target: T1, negatively modulated GCSF receptor (GCSFR(-)) (UniProt Q99062 25-621, modified by S-HyNic and conjugated through HyNic-4FB bonds to a 64-base DNA oligonucleotide (SEQ. ID 2, 5' C12 amino modifier); number and sites not stated)
T1 chain: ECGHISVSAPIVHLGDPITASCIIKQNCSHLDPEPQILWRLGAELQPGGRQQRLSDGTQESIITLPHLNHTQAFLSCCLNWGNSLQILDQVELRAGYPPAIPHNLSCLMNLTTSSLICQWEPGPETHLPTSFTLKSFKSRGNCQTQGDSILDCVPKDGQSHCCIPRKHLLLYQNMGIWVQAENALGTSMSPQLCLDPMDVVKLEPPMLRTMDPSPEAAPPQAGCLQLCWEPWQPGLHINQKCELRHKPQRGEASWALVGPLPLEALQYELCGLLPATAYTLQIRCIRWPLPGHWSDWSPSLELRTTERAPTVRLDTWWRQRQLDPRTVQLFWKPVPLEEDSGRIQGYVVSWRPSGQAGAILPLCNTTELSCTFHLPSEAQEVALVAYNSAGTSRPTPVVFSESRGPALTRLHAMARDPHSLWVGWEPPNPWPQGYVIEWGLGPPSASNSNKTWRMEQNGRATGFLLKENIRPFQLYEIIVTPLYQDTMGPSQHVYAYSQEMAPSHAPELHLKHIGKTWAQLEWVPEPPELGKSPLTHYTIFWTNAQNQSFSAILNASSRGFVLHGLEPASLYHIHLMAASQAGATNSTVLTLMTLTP

[2] = target: receptor; experiment: BLI
[3] = target: receptor

koff [1]: 5e-05 s⁻¹
B1: labeled G-CSF (Alexa Fluor 488) (ligand)
chain: TPLGPASSLPQSFLLKCLEQVRKIQGDGAALQEKLCATYKLCHPEELVLLGHSLGIPWAPLSSCPSQALQLAGCLSQLHSGLFLYQGLLQALEGISPELGPTLDTLQLDVADFATTIWQQMEELGMAPALQPTQGAMPAFASAFQRRAGGVLVASHLQSFLEVSYRVLRHLAQP
modifications: Alexa Fluor 488 label (carboxylic acid succinimidyl ester); sites not stated

koff [2]: < 1e-06 s⁻¹
koff [3]: 3.8e-05 s⁻¹
B2: G-CSF (ligand)
chain: B1 chain
